This experiment has as its target PADI4 (peptidyl-arginine deiminase 4), recombinant, dimeric (human) (UniProt Q9UM07). Nature of the experiment: BLI. In general terms: BLI is a label-free optical method that tracks binding on a fibre tip over time.

Chain of PADI4 (peptidyl-arginine deiminase 4), recombinant, dimeric (human) (Q9UM07 whole entry): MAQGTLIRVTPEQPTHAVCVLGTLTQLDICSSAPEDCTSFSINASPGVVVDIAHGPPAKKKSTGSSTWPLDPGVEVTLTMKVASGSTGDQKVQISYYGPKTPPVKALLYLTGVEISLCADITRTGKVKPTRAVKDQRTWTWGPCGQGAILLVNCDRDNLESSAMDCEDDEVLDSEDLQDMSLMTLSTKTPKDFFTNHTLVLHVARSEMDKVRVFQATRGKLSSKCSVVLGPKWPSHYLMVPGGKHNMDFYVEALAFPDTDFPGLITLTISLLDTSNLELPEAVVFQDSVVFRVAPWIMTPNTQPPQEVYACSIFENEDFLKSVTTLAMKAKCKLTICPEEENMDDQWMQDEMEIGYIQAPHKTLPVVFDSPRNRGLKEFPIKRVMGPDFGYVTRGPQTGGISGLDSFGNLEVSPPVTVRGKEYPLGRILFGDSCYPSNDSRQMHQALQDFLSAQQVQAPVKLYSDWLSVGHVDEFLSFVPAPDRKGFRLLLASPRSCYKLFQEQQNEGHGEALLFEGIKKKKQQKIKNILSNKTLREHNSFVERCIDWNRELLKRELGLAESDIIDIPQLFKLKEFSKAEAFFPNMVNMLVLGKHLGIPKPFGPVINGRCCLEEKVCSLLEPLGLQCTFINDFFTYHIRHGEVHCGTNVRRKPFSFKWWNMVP

Take “N-MDM2 derived from GST-tagged N-MDM2, GST-tag removed with thrombin (domain or fragment)”: the Kd was 2 µM, the koff worked out at 0.3 s⁻¹ and the kon was 170000 M⁻¹ s⁻¹.

A word on the Kd: it is the equilibrium constant for the complex coming apart. As a reminder, the koff is the rate constant with which the complex falls apart. In general, kon refers to a measure of how fast the partners come together.

(Values after paper PMC10364586.)
